Data from US20220040297A1 (Chugai, published 2022).
Substitutions are numbered along the chain they refer to. Numbers in names are those of the source. One block for each binder: values may come before it.

Biological target: T1, CD3ε homodimer protein (human, UniProt P07766 23-126, limits assumed, sulfo-tag or biotin label in some ECL assays)
T1 construct: also called human CD3ε homodimer protein; CD3 (CD3ε)
Assay: SPR, CD3ε homodimer on chip;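 also: biacore SPR with antibody variants flowed as analyte over amine-coupled CD3ε homodimer on a CM chip, bound amount of each single-residue H chain variant over that of parent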

T1 sequence (P07766 23-126 limits assumed): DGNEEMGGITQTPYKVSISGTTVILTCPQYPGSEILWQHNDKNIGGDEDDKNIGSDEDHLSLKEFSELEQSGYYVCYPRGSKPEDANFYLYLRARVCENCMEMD

ratio of amounts bound vs CE115HA000: 0.91
B1: CE115HA000 S74P (antibody, name in Kabat numbering, V domains shown)
VH: QVQLVESGGGVVQPGRSLRLSCAASGFTFSNAWMHWVRQAPGKGLEWVAQIKAKSNNYATYYAESVKGRFTISRDDPKNSLYLQMNSLKTEDTAVYYCRYVHYGAYYGVDAWGQGTTVTVSS
VL: DIVMTQSPLSLPVTPGEPASISCRSSQSLVHSNRNTYLHWYQQKPGQAPRLLIYKVSNRFSGVPDRFSGSGSGTDFTLKISRVEAEDVGVYYCGQGTQVPYTFGQGTKLEIK

ratio of amounts bound vs CE115HA000: 0.91
B2: CE115HA000 T28S (antibody, name in Kabat numbering, V domains shown)
VH: B1 VH with T28S, P77S
VL: B1 VL

ratio of amounts bound vs CE115HA000: 0.22
B3: CE115HA000 V95S (antibody, name in Kabat numbering, V domains shown)
VH: B1 VH with P77S, V101S
VL: B1 VL

ratio of amounts bound vs CE115HA000: 0.27
B4: CE115HA000 Y58L (antibody, name in Kabat numbering, V domains shown)
VH: B1 VH with Y61L, P77S
VL: B1 VL

ratio of amounts bound vs CE115HA000: 0.33
B5: CE115HA000 Y58N (antibody, name in Kabat numbering, V domains shown)
VH: B1 VH with Y61N, P77S
VL: B1 VL

ratio of amounts bound vs CE115HA000: 0.56
B6: CE115HA000 T28D (antibody, name in Kabat numbering, V domains shown)
VH: B1 VH with T28D, P77S
VL: B1 VL

ratio of amounts bound vs CE115HA000: 0.66
B7: CE115HA000 Y59E (antibody, name in Kabat numbering, V domains shown)
VH: B1 VH with Y62E, P77S
VL: B1 VL

ratio of amounts bound vs CE115HA000: 0.3
B8: CE115HA000 Y58K (antibody, name in Kabat numbering, V domains shown)
VH: B1 VH with Y61K, P77S
VL: B1 VL

ratio of amounts bound vs CE115HA000: 0.61
B9: CE115HA000 T57I (antibody, name in Kabat numbering, V domains shown)
VH: B1 VH with T60I, P77S
VL: B1 VL

ratio of amounts bound vs CE115HA000: 0.87
B10: CE115HA000 Y100aF (antibody, name in Kabat numbering, V domains shown)
VH: B1 VH with P77S, Y107F
VL: B1 VL

ratio of amounts bound vs CE115HA000: 1.32
B11: CE115HA000 T57K (antibody, name in Kabat numbering, V domains shown)
VH: B1 VH with T60K, P77S
VL: B1 VL

ratio of amounts bound vs CE115HA000: 0.94
B12: CE115HA000 Y59S (antibody, name in Kabat numbering, V domains shown)
VH: B1 VH with Y62S, P77S
VL: B1 VL

ratio of amounts bound vs CE115HA000: 0.26
B13: CE115HA000 Y55S (antibody, name in Kabat numbering, V domains shown)
VH: B1 VH with Y58S, P77S
VL: B1 VL

ratio of amounts bound vs CE115HA000: 0.1
B14: CE115HA000 W33L (antibody, name in Kabat numbering, V domains shown)
VH: B1 VH with W33L, P77S
VL: B1 VL

ratio of amounts bound vs CE115HA000: 0.98
B15: CE115HA000 T57A (antibody, name in Kabat numbering, V domains shown)
VH: B1 VH with T60A, P77S
VL: B1 VL

ratio of amounts bound vs CE115HA000: 0.13
B16: CE115HA000 W33H (antibody, name in Kabat numbering, V domains shown)
VH: B1 VH with W33H, P77S
VL: B1 VL

ratio of amounts bound vs CE115HA000: 0.45
B17: CE115HA000 Y55D (antibody, name in Kabat numbering, V domains shown)
VH: B1 VH with Y58D, P77S
VL: B1 VL

ratio of amounts bound vs CE115HA000: 0.66
B18: CE115HA000 W33Y (antibody, name in Kabat numbering, V domains shown)
VH: B1 VH with W33Y, P77S
VL: B1 VL

ratio of amounts bound vs CE115HA000: 1.03
B19: CE115HA000 Y100W (antibody, name in Kabat numbering, V domains shown)
VH: B1 VH with P77S, Y106W
VL: B1 VL

ratio of amounts bound vs CE115HA000: 0.24
B20: CE115HA000 V95D (antibody, name in Kabat numbering, V domains shown)
VH: B1 VH with P77S, V101D
VL: B1 VL

ratio of amounts bound vs CE115HA000: 0.65
B21: CE115HA000 W33F (antibody, name in Kabat numbering, V domains shown)
VH: B1 VH with W33F, P77S
VL: B1 VL

ratio of amounts bound vs CE115HA000: 0.52
B22: CE115HA000 Y100D (antibody, name in Kabat numbering, V domains shown)
VH: B1 VH with P77S, Y106D
VL: B1 VL

ratio of amounts bound vs CE115HA000: 0.7
B23: CE115HA000 Y59D (antibody, name in Kabat numbering, V domains shown)
VH: B1 VH with Y62D, P77S
VL: B1 VL

ratio of amounts bound vs CE115HA000: 0.1
B24: CE115HA000 W33A (antibody, name in Kabat numbering, V domains shown)
VH: B1 VH with W33A, P77S
VL: B1 VL

ratio of amounts bound vs CE115HA000: 0.22
B25: CE115HA000 Y58A (antibody, name in Kabat numbering, V domains shown)
VH: B1 VH with Y61A, P77S
VL: B1 VL

ratio of amounts bound vs CE115HA000: 0.8
B26: CE115HA000 V100cP (antibody, name in Kabat numbering, V domains shown)
VH: B1 VH with P77S, V109P
VL: B1 VL

ratio of amounts bound vs CE115HA000: 1.23
B27: CE115HA000 Y100aG (antibody, name in Kabat numbering, V domains shown)
VH: B1 VH with P77S, Y107G
VL: B1 VL

ratio of amounts bound vs CE115HA000: 0.18
B28: CE115HA000 Y58S (antibody, name in Kabat numbering, V domains shown)
VH: B1 VH with Y61S, P77S
VL: B1 VL

ratio of amounts bound vs CE115HA000: 1
B29: CE115HA000 V11L (antibody, name in Kabat numbering, V domains shown)
VH: B1 VH with V11L, P77S
VL: B1 VL

ratio of amounts bound vs CE115HA000: 0.48
B30: CE115HA000 V100cA (antibody, name in Kabat numbering, V domains shown)
VH: B1 VH with P77S, V109A
VL: B1 VL

ratio of amounts bound vs CE115HA000: 0.24
B31: CE115HA000 Y97D (antibody, name in Kabat numbering, V domains shown)
VH: B1 VH with P77S, Y103D
VL: B1 VL

ratio of amounts bound vs CE115HA000: 0.97
B32: CE115HA000 T57N (antibody, name in Kabat numbering, V domains shown)
VH: B1 VH with T60N, P77S
VL: B1 VL

ratio of amounts bound vs CE115HA000: 0.8
B33: CE115HA000 Y100Q (antibody, name in Kabat numbering, V domains shown)
VH: B1 VH with P77S, Y106Q
VL: B1 VL

ratio of amounts bound vs CE115HA000: 0.56
B34: CE115HA000 Y100aQ (antibody, name in Kabat numbering, V domains shown)
VH: B1 VH with P77S, Y107Q
VL: B1 VL

ratio of amounts bound vs CE115HA000: 0.35
B35: CE115HA000 Y59A (antibody, name in Kabat numbering, V domains shown)
VH: B1 VH with Y62A, P77S
VL: B1 VL

ratio of amounts bound vs CE115HA000: 0.48
B36: CE115HA000 Y100P (antibody, name in Kabat numbering, V domains shown)
VH: B1 VH with P77S, Y106P
VL: B1 VL

ratio of amounts bound vs CE115HA000: 0.55
B37: CE115HA000 Y55G (antibody, name in Kabat numbering, V domains shown)
VH: B1 VH with Y58G, P77S
VL: B1 VL

ratio of amounts bound vs CE115HA000: 0.11
B38: CE115HA000 Y58D (antibody, name in Kabat numbering, V domains shown)
VH: B1 VH with Y61D, P77S
VL: B1 VL

ratio of amounts bound vs CE115HA000: 9.9
B39: CE115HA000 Y100A (antibody, name in Kabat numbering, V domains shown)
VH: B1 VH with P77S, Y106A
VL: B1 VL

ratio of amounts bound vs CE115HA000: 0.8
B40: CE115HA000 Y100V (antibody, name in Kabat numbering, V domains shown)
VH: B1 VH with P77S, Y106V
VL: B1 VL

ratio of amounts bound vs CE115HA000: 0.9
B41: CE115HA000 S77T (antibody, name in Kabat numbering, V domains shown)
VH: B1 VH with P77S, S80T
VL: B1 VL

ratio of amounts bound vs CE115HA000: 0.19
B42: CE115HA000 Y58Q (antibody, name in Kabat numbering, V domains shown)
VH: B1 VH with Y61Q, P77S
VL: B1 VL

ratio of amounts bound vs CE115HA000: 0.11
B43: CE115HA000 Y97P (antibody, name in Kabat numbering, V domains shown)
VH: B1 VH with P77S, Y103P
VL: B1 VL

ratio of amounts bound vs CE115HA000: 0.1
B44: CE115HA000 W33D (antibody, name in Kabat numbering, V domains shown)
VH: B1 VH with W33D, P77S
VL: B1 VL

ratio of amounts bound vs CE115HA000: 0.9
B45: CE115HA000 Y100aH (antibody, name in Kabat numbering, V domains shown)
VH: B1 VH with P77S, Y107H
VL: B1 VL
